How the values were obtained:
[1] = molecular target: human MC4 (melanocortin receptor 4) (human) (UniProt P32245)
[2] = molecular target: mouse MC3 (melanocortin receptor 3) (mouse) (UniProt P33033)
[3] = molecular target: human MC3 (melanocortin receptor 3) (human) (UniProt P41968)
[4] = molecular target: human MC5 (melanocortin receptor 5) (human) (UniProt P33032)
Sequence of UniProt P33032 (P33032 whole entry): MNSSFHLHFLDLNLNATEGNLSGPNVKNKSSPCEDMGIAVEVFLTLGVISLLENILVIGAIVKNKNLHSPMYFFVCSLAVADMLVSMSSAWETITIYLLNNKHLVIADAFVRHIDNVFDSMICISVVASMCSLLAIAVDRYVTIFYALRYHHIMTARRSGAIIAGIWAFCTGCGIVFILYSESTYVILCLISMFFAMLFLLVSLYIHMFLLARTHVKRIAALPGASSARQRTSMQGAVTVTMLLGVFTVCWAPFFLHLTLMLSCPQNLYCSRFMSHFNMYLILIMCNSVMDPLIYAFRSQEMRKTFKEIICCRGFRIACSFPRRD

Sequence of UniProt P32245 (P32245 whole entry): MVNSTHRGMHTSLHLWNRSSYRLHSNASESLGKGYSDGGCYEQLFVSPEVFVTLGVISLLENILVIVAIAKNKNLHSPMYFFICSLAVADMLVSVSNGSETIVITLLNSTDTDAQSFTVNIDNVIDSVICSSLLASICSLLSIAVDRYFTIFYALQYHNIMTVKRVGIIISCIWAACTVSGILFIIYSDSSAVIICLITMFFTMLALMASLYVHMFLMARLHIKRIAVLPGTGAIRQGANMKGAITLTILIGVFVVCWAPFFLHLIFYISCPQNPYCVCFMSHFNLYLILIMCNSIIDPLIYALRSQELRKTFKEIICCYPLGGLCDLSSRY
Sequence of UniProt P33033 (P33033 whole entry): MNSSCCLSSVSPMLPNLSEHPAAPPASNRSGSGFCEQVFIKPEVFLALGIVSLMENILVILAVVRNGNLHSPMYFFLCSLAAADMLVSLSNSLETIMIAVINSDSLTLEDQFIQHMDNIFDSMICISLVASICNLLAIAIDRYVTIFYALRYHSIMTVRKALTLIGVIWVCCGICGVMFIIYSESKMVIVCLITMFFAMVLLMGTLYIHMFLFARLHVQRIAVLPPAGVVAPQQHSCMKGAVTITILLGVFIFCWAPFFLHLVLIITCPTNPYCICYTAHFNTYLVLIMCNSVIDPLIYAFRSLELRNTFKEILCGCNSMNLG
Sequence of UniProt P41968 (P41968 whole entry): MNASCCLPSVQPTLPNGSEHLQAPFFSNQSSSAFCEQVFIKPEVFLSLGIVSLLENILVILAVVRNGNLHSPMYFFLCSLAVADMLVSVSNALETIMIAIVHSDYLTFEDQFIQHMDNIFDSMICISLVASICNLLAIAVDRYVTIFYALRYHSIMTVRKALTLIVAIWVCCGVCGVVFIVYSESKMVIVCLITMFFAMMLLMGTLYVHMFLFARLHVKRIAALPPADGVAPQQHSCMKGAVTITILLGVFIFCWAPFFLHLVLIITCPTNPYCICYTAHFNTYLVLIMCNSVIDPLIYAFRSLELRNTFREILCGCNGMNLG

ACTH (peptide)
pEC50 of cAMP production (HTRF cAMP assay) in receptor-transfected cells, with 0-30 μM fenoprofen; 8.76 at 0 μM, highest at 30 μM [1]: 9.25 pEC50
pEC50 of cAMP production (HTRF cAMP assay) in receptor-transfected cells, with 0-30 μM fenoprofen; 8.69 at 0 μM, highest at 30 μM [2]: 9.03 pEC50
pEC50 of cAMP production (HTRF cAMP assay) in receptor-transfected cells, with 0-30 μM fenoprofen; 8.19 at 0 μM, highest at 30 μM [3]: 8.87 pEC50
pEC50 of cAMP production (HTRF cAMP assay) in receptor-transfected cells, with 0-30 μM fenoprofen; 6.78 at 0 μM, highest at 30 μM [4]: 7.29 pEC50

Lys-γ3MSH (peptide)
pEC50 of cAMP production (HTRF cAMP assay) in receptor-transfected cells, with 0-30 μM fenoprofen; 7.33 at 0 μM, highest at 30 μM [1]: 7.72 pEC50
pEC50 of cAMP production (HTRF cAMP assay) in receptor-transfected cells, with 0-30 μM fenoprofen; 9.19 at 0 μM, highest at 10 μM [2]: 9.3 pEC50
pEC50 of cAMP production (HTRF cAMP assay) in receptor-transfected cells, with 0-30 μM fenoprofen; 8.80 at 0 μM, highest at 30 μM [3]: 9.35 pEC50
pEC50 of cAMP production (HTRF cAMP assay) in receptor-transfected cells, with 0-30 μM fenoprofen; 6.13 at 0 μM, highest at 30 μM [4]: 6.8 pEC50

NDP-αMSH (peptide)
pEC50 of cAMP production (HTRF cAMP assay) in receptor-transfected cells, with 0-30 μM fenoprofen; highest at 0 μM, 10.38 at 30 μM [1]: 10.5 pEC50
pEC50 of cAMP production (HTRF cAMP assay) in receptor-transfected cells, with 0-30 μM fenoprofen; 9.78 at 0 μM, highest at 3 μM [2]: 9.86 pEC50
pEC50 of cAMP production (HTRF cAMP assay) in receptor-transfected cells, with 0-30 μM fenoprofen; 9.40 at 0 μM, highest at 30 μM [3]: 9.66 pEC50
pEC50 of cAMP production (HTRF cAMP assay) in receptor-transfected cells, with 0-30 μM fenoprofen; 8.98 at 0 μM, highest at 10 μM [4]: 9.06 pEC50

αMSH (melanocyte-stimulating hormone) (peptide)
pEC50 of cAMP production (HTRF cAMP assay) in receptor-transfected cells, with 0-30 μM fenoprofen; 8.38 at 0 μM, highest at 30 μM [1]: 9.11 pEC50
pEC50 of cAMP production (HTRF cAMP assay) in receptor-transfected cells, with 0-30 μM fenoprofen; 8.33 at 0 μM, highest at 30 μM [2]: 8.86 pEC50
pEC50 of cAMP production (HTRF cAMP assay) in receptor-transfected cells, with 0-30 μM fenoprofen; 7.58 at 0 μM, highest at 30 μM [3]: 8.3 pEC50
pEC50 of cAMP production (HTRF cAMP assay) in receptor-transfected cells, with 0-30 μM fenoprofen; 6.64 at 0 μM, highest at 30 μM [4]: 7.22 pEC50

From PMC5346439
